From patent US20230183305A1, “KERATIN BD-11, PREPARATION METHOD THEREFOR AND PHARMACEUTICAL COMPOSITION AND USE THEREOF” (INSTITUTE OF MATERIA MEDICA, CHINESE ACADEMY OF MEDICAL …, priority 2019, published 2023)

Experiments:
[1] = system: tracheal phenol red excretion in ICR mice; assay: Expectorant test, phenol red excretion method in mice; format: in vivo, mouse; details: for Phenol red excretion: X±SEM, n=10
Experimental: • Animals: male ICR mice; • Drugs and reagents: Mucosolvan (ambroxol hydrochloride tablets), phenol red, sodium bicarbonate, protein BD-11; • Instruments: centrifuge (Sigma-3K15 type), balance (XS105DU type), Microplate tester (BIO-TEK type).
Experiment grouping: • Solvent control group; • Mucosolvan 30 mg/kg group; • Protein BD-11, 20 mg/kg group, 50 mg/kg group.
The animals were fasted and water was taken freely 16 hours before the experiment. Orally administered Mucosolvan and different doses of protein BD-11 (administration volume 10 ml/kg) in groups, and the solvent control group was given the same volume of distilled water. One hour later, 2.5% phenol red solution was injected intraperitoneally. Mice were sacrificed by neck dislocation after 30 minutes. Take a trachea from below the thyroid cartilage to the branch of the trachea, and put the trachea into 3 ml 5% NaHCO3 solution and let it stand for 3 hours. Take 1 ml of the supernatant and centrifuge at 3000 rpm for 5 minutes. Measure and record the absorbance at 546 nm. According to the standard curve of phenol red, the excretion of phenol red was calculated.
Record the time point of oral administration, the time point of intraperitoneal injection of 2.5% phenol red solution, and the time point of taking the trachea respectively; The absorbance of each group of samples was measured by the microplate reader at 546 nm, Calculate the excretion of phenol red according to the standard curve of phenol red. Calculate the mean and standard error of the data in each group, and use TTEST to compare the solvent control group with other groups, and P<0.05 is considered as a significant difference.
Give Mucosolvan (30 mg/kg) and different doses of protein BD-11 (20 mg/kg, 50 mg/kg). One hour later, 2.5% phenol red solution was intraperitoneally injected, and 30 minutes later, the mice were sacrificed by neck dislocation. Take the trachea from below the thyroid cartilage to the branch of the trachea, put the trachea into 3 ml of 5% NaHCO3 solution and let it stand for 3 hours, take 1 ml of supernatant, centrifuge at 3000 rpm for 5 minutes, measure and record the absorbance at 546 nm. According to the standard curve of phenol red, the excretion of phenol red was calculated.

[2] = system: acetic acid writhing in ICR mice; assay: Acetic acid writhing test in ICR mice; format: in vivo, mouse; details: for Writhing incubation period: 0.6% acetic acid i.p.; for Writhing incubation period / Frequency of writhing: n=13; for Frequency of writhing: within 15 minutes
Experimental: • Animals: male ICR mice; • Drugs and reagents: aspirin, physiological saline, glacial acetic acid, protein BD-11.
Experiment grouping: • Model group; • Aspirin 300 mg/kg group; • Protein BD-11, 50 mg/kg group, 200 mg/kg group.
One day after the experimental animals adapt to the environment, Aspirin 300 mg/kg, protein BD-11 50 mg/kg, 200 mg/kg were given orally one hour in advance, and the administration volume was 10 ml/kg; Then, 0.6% acetic acid solution was injected intraperitoneally, and the incubation period (seconds) and frequency of writhing in the animal was observed within 15 minutes.
Calculate the mean and standard error of the data in each group. Compared with the model group by TTEST, P<0.05 was considered as statistically different.
One hour after oral administration of aspirin 300 mg/kg and different doses of protein BD-11 (50 mg/kg, 200 mg/kg), 0.6% acetic acid solution was intraperitoneally injected to observe the writhing incubation period and frequency of ICR mice.
0.6% acetic acid solution was injected into the abdominal cavity of mice, which caused deep and large area and long-term painful stimulation, causing the mice to writhe (the abdomen was contracted into an “S” shape, the trunk and hind legs were stretched, the buttocks were raised and creeping). The incubation time to start writhing and times of writhing in mice were used as the pain response indexs to determine whether the test sample had analgesic effect. […] Compared with the model group, P<0.05, which is statistically significant.

[3] = system: yeast-induced fever model in SD rats; assay: Yeast-induced fever model in SD rats; format: in vivo, rat; details: for Body temperature 2 hours after modeling: 2 h after 20% yeast s.c.; for Body temperature 2 hours after modeling / Body temperature 4 hours after modeling / Body temperature 6 hours after modeling / Body temperature 8 hours after modeling: n=8; for Body temperature 4 hours after modeling: 4 h after 20% yeast s.c.; for Body temperature 6 hours after modeling: 6 h after 20% yeast s.c.; for Body temperature 8 hours after modeling: 8 h after 20% yeast s.c.
Experimental: • Animals: 230-260 grams of male SD rats;; • Drugs: yeast (OXOID LP0021), aspirin (SIGMA A2093), protein BD-11; • Instruments: electronic balance (SARTORIUS BP121S type), electronic clinical thermometer (CITIZEN CT-513W type).
Experiment grouping: • Normal control group; • Model group: yeast fever model; • Positive control group: Aspirin 300 mg/kg group; • Protein BD-11, 10 mg/kg group, 50 mg/kg group.
Preparation of experimental animals: After the experimental animals adapt to the experimental environment (temperature 22° C.±2° C., relative humidity 50%±2%) for 1 day. Pre-adaptation to measure rectal temperature at 8:00 and 15:00, rats were fasted and water was taken freely 12 h before experiment, and let the animal to empty its feces before measuring the rectal temperature. Apply petroleum jelly to the electronic thermometer probe before each temperature measurement. Insert the rat rectum 2 cm (can be marked at 2 cm to ensure that the depth of each insertion is consistent), and record the body temperature after the reading is stable.
Subcutaneous injection of dry yeast to replicate rat fever model: The body temperature of the rats was measured before modeling. Qualified rats with a body temperature of 36.2-37.3° C. were selected and randomly divided into groups with 8 rats in each group. After oral administration of aspirin and different doses of protein BD-11, 20% yeast suspension (10 ml/kg) was injected subcutaneously immediately, and the normal control group was injected intraperitoneally with an equal volume of normal saline. The body temperatures of the rats were monitored after 2 hours for a total of 8 hours.
According to the body temperature measured at each time point on the day of the experiment, calculate the mean, standard deviation and standard error of the body temperature of each group of rats. The data of each group was compared with TTEST, and P<0.05 was considered as a significant difference.
Immediately after oral administration of aspirin (300 mg/kg), protein BD-11 (10 mg/kg, 50 mg/kg), subcutaneous injection of 20% yeast was performed to establish a model. The animal body temperature was monitored at 2 hours, 4 hours, 6 hours, and 8 hours after modeling.

B1: BD-11: recombinant keratin, amino acid sequence SEQ ID NO:1, expressed in E. coli, band around 59 kD; Example 4 batch tested (protein, listed as Bos taurus)
chain: MSRQSTITFQTSSRRGFSTASATTPATSRSRFSSASVTHSPAGSGGLGRISGFGSRSLYNLGGTKRVSISGCGSNFRSGFGGRASSGFGVSGGFGYGGGIGGGHGGCGFSVCPPGGIQEVTVNQSLLTPLNLQIDPNIQRVRKEEREQIKTLNNKFASFIDKVRFLEQQNKVLETKWSLLQEQGTRTVRQSLEPFFEAYITDLRRQLDSITTERGRLDAELRTMQDVVEDFKVRYEDEINKRTAAENEFVALKKDVDAAYLNKVDLEAKANSLTDEINFLQMLFEAELCQMQTRVSDTSVVLSMDNNRSLDLDSIIAEVKAQYEEIANRSRAEAESWYQTKYEELQVTAGQHGDDLRNTKQEISETNRMIQRLRAEIDNVKKQCASLQTAIADAEQRGELALKDARAKLVDLEEALQKSKQDMARLLREYQELMNIKLALDVEIATYRKLLEGEECRLSGEGVSPVNISVVTSTVSSGYGGGSSIGSGSLGLSGGSGCSFMTSGGHSLGGSSFSNSSSRGLGGSGSSFKFVSTTSSSRKSYKH
- Phenol red excretion ([1]; BD-11 20 mg/kg oral): 0.670 ± 0.082 µg/mL
- Excretion of phenol red vs solvent control group ([1]; BD-11 50 mg/kg dose group, P<0.05): significantly increased the excretion of phenol red
- Phenol red excretion ([1]; BD-11 50 mg/kg oral): 0.781 ± 0.043 µg/mL
- Expectorant effect (summary) ([1]; dose not given): obvious expectorant effect
- Writhing incubation period ([2]; BD-11 50 mg/kg oral): 163.8 ± 8.2 s
- Frequency of writhing ([2]; BD-11 50 mg/kg oral): 35.0 ± 2.5 times
- Effect on number of writhing in mice ([2]; BD-11 200 mg/kg dose group, P<0.05 vs model group): significantly reduce the number of writhing
- Writhing incubation period ([2]; BD-11 200 mg/kg oral): 299.9 ± 65.2 s
- Frequency of writhing ([2]; BD-11 200 mg/kg oral): 23.3 ± 3.1 times
- Effect on number of writhing times in mice (summary) ([2]; dose not given): significantly reduce the number of writhing times
- Effect on increase in body temperature (summary) ([3]; 2, 4, 6 and 8 hours after modeling, dose not given): significantly inhibit the increase in body temperature
- Effect on the increase in body temperature of model rats ([3]; BD-11 10 mg/kg dose group, most time points P<0.05 vs model group): strong effect
- Body temperature 2 hours after modeling ([3]; BD-11 10 mg/kg oral): 36.7±0.1 °C
- Body temperature 4 hours after modeling ([3]; BD-11 10 mg/kg oral): 37.0±0.1 °C
- Body temperature 6 hours after modeling ([3]; BD-11 10 mg/kg oral): 37.4±0.1 °C
- Body temperature 8 hours after modeling ([3]; BD-11 10 mg/kg oral): 37.3 ±0.1 °C
- Body temperature 2 hours after modeling ([3]; BD-11 50 mg/kg oral): 36.9 ± 0.2 °C
- Body temperature 4 hours after modeling ([3]; BD-11 50 mg/kg oral): 37.4 ± 0.1 °C
- Body temperature 6 hours after modeling ([3]; BD-11 50 mg/kg oral): 37.5 ± 0.1 °C
- Body temperature 8 hours after modeling ([3]; BD-11 50 mg/kg oral): 37.4 ±0.1 °C
- Effect on the increase in body temperature of model rats ([3]; different doses of BD-11 (10, 50 mg/kg oral), after modeling): can inhibit the increase in body temperature of model rats to varying degrees
